Experimental data taken from publication PMC10397247.
One block for each binder: values may come before it.

Legend:
4H1913-AA = biological target: T1, 4H1913-AA; experiment: two-hybrid library CCmax;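 further: natural log of median RNA to DNA barcode read ratio; higher means stronger binding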
T1 chain: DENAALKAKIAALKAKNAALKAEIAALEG

4H249-AA = biological target: T2, 4H249-AA; experiment: two-hybrid library CCmax; conditions: mean of both orientations;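 further: natural log of median RNA to DNA barcode read ratio; higher means stronger binding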
T2 chain: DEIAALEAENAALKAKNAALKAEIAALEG

4H2580-AA = biological target: T3, 4H2580-AA; experiment: two-hybrid library CCmax; conditions: mean of both orientations;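 further: natural log of median RNA to DNA barcode read ratio; higher means stronger binding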
T3 chain: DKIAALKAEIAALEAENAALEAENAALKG

4H2621-AA = biological target: T4, 4H2621-AA; experiment: two-hybrid library CCmax; conditions: mean of both orientations;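 further: natural log of median RNA to DNA barcode read ratio; higher means stronger binding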
T4 chain: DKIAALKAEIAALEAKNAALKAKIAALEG

4H2699-AA = biological target: T5, 4H2699-AA; experiment: two-hybrid library CCmax; conditions: mean of both orientations
T5 chain: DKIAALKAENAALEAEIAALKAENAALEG

4H2728-AA = biological target: T6, 4H2728-AA; experiment: two-hybrid library CCmax; conditions: mean of both orientations
T6 chain: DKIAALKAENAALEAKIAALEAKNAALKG

4H2774-AA = biological target: T7, 4H2774-AA; experiment: two-hybrid library CCmax; conditions: mean of both orientations
T7 chain: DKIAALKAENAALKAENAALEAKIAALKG

4H2903-AA = biological target: T8, 4H2903-AA; experiment: two-hybrid library CCmax; conditions: mean of both orientations
T8 chain: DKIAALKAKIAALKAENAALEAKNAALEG

4H2961-AA = biological target: T9, 4H2961-AA; experiment: two-hybrid library CCmax; conditions: mean of both orientations
T9 chain: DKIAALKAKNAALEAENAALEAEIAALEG

4H3049-AA = biological target: T10, 4H3049-AA; experiment: two-hybrid library CCmax; conditions: mean of both orientations
T10 chain: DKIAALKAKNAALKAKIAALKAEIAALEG

4H3129-AA = biological target: T11, 4H3129-AA; experiment: two-hybrid library CCmax
T11 chain: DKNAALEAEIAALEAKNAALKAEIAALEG

4H341-AA = biological target: T12, 4H341-AA; experiment: two-hybrid library CCmax; conditions: mean of both orientations
T12 chain: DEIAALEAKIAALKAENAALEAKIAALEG

4H3414-AA = biological target: T13, 4H3414-AA; experiment: two-hybrid library CCmax; conditions: mean of both orientations
T13 chain: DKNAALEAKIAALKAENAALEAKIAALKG

4H3595-AA = biological target: T14, 4H3595-AA; experiment: two-hybrid library CCmax; conditions: mean of both orientations
T14 chain: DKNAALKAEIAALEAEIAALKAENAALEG

4H3629-AA = biological target: T15, 4H3629-AA; experiment: two-hybrid library CCmax; conditions: mean of both orientations
T15 chain: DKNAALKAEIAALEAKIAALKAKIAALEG

4H3782-AA = biological target: T16, 4H3782-AA; experiment: two-hybrid library CCmax; conditions: mean of both orientations
T16 chain: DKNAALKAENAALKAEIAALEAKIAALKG

4H380-AA = biological target: T17, 4H380-AA; experiment: two-hybrid library CCmax; conditions: mean of both orientations
T17 chain: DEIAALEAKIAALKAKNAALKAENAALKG

4H3939-AA = biological target: T18, 4H3939-AA; experiment: two-hybrid library CCmax; conditions: mean of both orientations
T18 chain: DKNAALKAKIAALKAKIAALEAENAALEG

4H3969-AA = biological target: T19, 4H3969-AA; experiment: two-hybrid library CCmax; conditions: mean of both orientations
T19 chain: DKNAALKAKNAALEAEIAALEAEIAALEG

4H446-AA = biological target: T20, 4H446-AA; experiment: two-hybrid library CCmax; conditions: mean of both orientations
T20 chain: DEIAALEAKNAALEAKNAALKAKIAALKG

4H464-AA = biological target: T21, 4H464-AA; experiment: two-hybrid library CCmax; conditions: mean of both orientations
T21 chain: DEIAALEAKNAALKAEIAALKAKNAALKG

4H483-AA = biological target: T22, 4H483-AA; experiment: two-hybrid library CCmax; conditions: mean of both orientations
T22 chain: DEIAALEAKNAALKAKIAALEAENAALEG

4H63-AA = biological target: T23, 4H63-AA; experiment: two-hybrid library CCmax
T23 chain: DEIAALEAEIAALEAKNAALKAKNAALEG

P5SC1 = biological target: T24, P5SC1; experiment: two-hybrid library CC1; conditions: mean of both orientations
T24 chain: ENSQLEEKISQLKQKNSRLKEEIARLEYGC

P5SC2 = biological target: T25, P5SC2; experiment: two-hybrid library CC1; conditions: mean of both orientations
T25 chain: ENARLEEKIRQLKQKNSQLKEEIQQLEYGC

P5 = biological target: T26, P5; experiment: two-hybrid library CC1
T26 chain: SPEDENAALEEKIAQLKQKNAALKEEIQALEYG

P5mS = biological target: T27, P5mS; experiment: two-hybrid library CC1; conditions: mean of both orientations
T27 chain: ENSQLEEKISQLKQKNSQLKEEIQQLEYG

P6SC1 = biological target: T28, P6SC1; experiment: two-hybrid library CC1; conditions: mean of both orientations
T28 chain: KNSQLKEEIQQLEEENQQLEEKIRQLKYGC

P6SC2 = biological target: T29, P6SC2; experiment: two-hybrid library CC1; conditions: mean of both orientations
T29 chain: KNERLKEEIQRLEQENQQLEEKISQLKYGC

P6 = biological target: T30, P6; experiment: two-hybrid library CC1; conditions: mean of both orientations
T30 chain: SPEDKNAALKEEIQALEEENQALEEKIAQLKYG

P6mS = biological target: T31, P6mS; experiment: two-hybrid library CC1; conditions: mean of both orientations
T31 chain: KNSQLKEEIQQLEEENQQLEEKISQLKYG

P7 = biological target: T32, P7; experiment: two-hybrid library CC1; conditions: mean of both orientations
T32 chain: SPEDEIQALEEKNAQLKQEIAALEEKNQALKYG

P7mS = biological target: T33, P7mS; experiment: two-hybrid library CC1; conditions: mean of both orientations
T33 chain: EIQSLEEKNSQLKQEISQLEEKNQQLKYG

P8 = biological target: T34, P8; experiment: two-hybrid library CC1; conditions: mean of both orientations
T34 chain: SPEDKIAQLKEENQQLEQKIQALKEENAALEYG

P8mS = biological target: T35, P8mS; experiment: two-hybrid library CC1; conditions: mean of both orientations
T35 chain: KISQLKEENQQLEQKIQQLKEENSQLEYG

P9 = biological target: T36, P9; experiment: two-hybrid library CC1; conditions: mean of both orientations
T36 chain: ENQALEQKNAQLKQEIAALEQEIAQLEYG

P4A-bH = biological target: T37, P4A-bH; experiment: two-hybrid library CCNG1
T37 chain: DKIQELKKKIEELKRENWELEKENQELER

P5A-bH = biological target: T38, P5A-bH; experiment: two-hybrid library CCNG1
T38 chain: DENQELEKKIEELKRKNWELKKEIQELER

P6A-bH = biological target: T39, P6A-bH; experiment: two-hybrid library CCNG1
T39 chain: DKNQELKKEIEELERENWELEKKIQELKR

P7A-bH = biological target: T40, P7A-bH; experiment: two-hybrid library CCNG1
T40 chain: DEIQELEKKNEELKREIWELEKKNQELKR

P8A-bH = biological target: T41, P8A-bH; experiment: two-hybrid library CCNG1
T41 chain: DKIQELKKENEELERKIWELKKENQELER

P9A-bH = biological target: T42, P9A-bH; experiment: two-hybrid library CCNG1
T42 chain: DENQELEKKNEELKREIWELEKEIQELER

interaction score (4H1913-AA): -1.12
interaction score (4H249-AA): -1.83
interaction score (4H2580-AA): 0.453
interaction score (4H2621-AA): -0.536
interaction score (4H2699-AA): -0.293
interaction score (4H2728-AA): 0.365
interaction score (4H2774-AA): -0.0687
interaction score (4H2903-AA): -1.62
interaction score (4H2961-AA): -1.61
interaction score (4H3049-AA): -1.85
interaction score (4H3129-AA): -0.895
interaction score (4H341-AA): 0.862
interaction score (4H3414-AA): 1.8
interaction score (4H3595-AA): -1.29
interaction score (4H3629-AA): -1.21
interaction score (4H3782-AA): -1.16
interaction score (4H380-AA): -2.69
interaction score (4H3939-AA): -1.9
interaction score (4H3969-AA): -0.832
interaction score (4H446-AA): -1.42
interaction score (4H464-AA): -0.535
interaction score (4H483-AA): -1.02
interaction score (4H63-AA): -0.87
Binder: DENAALKAKIAALKAKNAALKAEIAALEG [4H1913-AA]

Binder: SPEDENAALEEKIAQLKQKNAALKEEIQALEYG [P5]
interaction score (P5SC1): -2.93
interaction score (P5SC2): -2.84
interaction score (P5): -2.89
interaction score (P5mS): -2.94
interaction score (P6SC1): 0.186
interaction score (P6SC2): 0.252
interaction score (P6): 0.207
interaction score (P6mS): 0.1
interaction score (P7): -2.59
interaction score (P7mS): -2.8
interaction score (P8): -1.39
interaction score (P8mS): -2.62
interaction score (P9): -2.12

interaction score (P4A-bH): -1.38
interaction score (P5A-bH): -0.285
interaction score (P6A-bH): -2.06
interaction score (P7A-bH): -0.412
interaction score (P8A-bH): 0.0606
interaction score (P9A-bH): -0.144
Binder: DKIQELKKKIEELKRENWELEKENQELER [P4A-bH]

interaction score (P5A-bH): -1.13
interaction score (P6A-bH): 1.49
interaction score (P7A-bH): -0.756
interaction score (P8A-bH): 1.32
interaction score (P9A-bH): -0.708
Binder: DENQELEKKIEELKRKNWELKKEIQELER [P5A-bH]
